Measured values taken from article PMC10590986.
Values joined by “and” are separate entries in the source; they are usually repeats but may differ in a detail not shown here. Equal values may be shown once.

Biological target: poliovirus 3AsolBC protein (poliovirus)
Assay: SEC

With “poliovirus 3AsolBC protein (natural protein)” the Kd was 20 to 60 µM and the percent of the total absorbance in the leading-edge (dimer) peak was 10% and 30%.
